Source: US10428327B2, “Compositions and methods for enhancing homologous recombination” (LIFE TECHNOLOGIES CORPORATION, priority 2016, dated 2019)
Oligonucleotides are written 5' to 3', each unit as a sugar letter and its base; * is a phosphorothioate linkage, no mark a phosphodiester; rarer units and linkages stand in square brackets, end groups in braces. Plain capitals give the bases only. d = 2'-deoxy (DNA); {P} = phosphate

Tests used:
Assay type in all cases: cell-based
[1] = system: eBFP locus in HEK293 cells expressing eBFP; test: Genomic cleavage and detection assay at eBFP locus after Cas9 RNP and FLAG/EcoRI donor; settings: sequential delivery, 48 hours post transfection
Source text: (§1) FIG. 11. Insertion of a FLAG tag along with an EcoRI site using dsDNA donor with single-stranded overhangs. (A) Various donor DNA molecules containing a 30-base FLAG tag along with an EcoRI site were designed and synthesized, including single-stranded DNA donor (ssDNA), blunt-end dsDNA donor (blunt), dsDNA donor with 5′ overhang (5′), dsDNA donor with 3′ overhang (3′). The length of overhangs varied from 6 nucleotides (6), 15 nucleotides (15) to 30 nucleotides (30). The 3′ and 5′ ends of the oligonucleotides harbored two consecutive phosphorothioate-modified bases (Table 4). The short dsDNA donors with and without overhangs were prepared by annealing two short DNA oligonucleotides. […] At 48 hours post transfection, the eBFP locus was PCR-amplified. The resulting PCR fragments were analyzed by the genomic cleavage and detection assays to determine the percentage of Indel or subjected to restriction digestion with EcoRI to determine the percentage of digestion. (B) Length of 3′ overhang. […] Alternatively, a dsDNA donor with 30-base 3′ overhang but without phosphorothioate modification (30-3′n) was used. The percentage of digestion with EcoRI was determined at 48 hours post transfection. (C) Dose effect. […] The eBFP loci were PCR-amplified. The resulting PCR fragments were analyzed by EcoRI digest. (D) Sequencing verification. The PCR fragments were cloned into E. coli and 192 clones were randomly picked for sequencing. The relative percentage of wild type (wt), NHEJ, and HDR clones derived from either ssDNA donor (ssDNA) or dsDNA with 3′ overhangs (3′ overhang) was plotted. The white rectangles represented the population of clones that contained the insert but with a point mutation. Examples of edited clones were shown in (E) (not representing the actual percentages of NHEJ and HDR). The underlined sequences represented the FLAG tag along with an RI site. FIG. 11 discloses SEQ ID NOs: 15-24, respectively, from top to bottom.
The genomic cleavage efficiency was measured by GENEART® Genomic Cleavage Detection kit according to manufacturer's instructions. The primer sequences for PCR amplification of each genomic locus are described in Table 4. Cells were analyzed at 48 to 72 hours post transfection. The cleavage efficiencies were calculated based on the relative agarose gel band intensity, which were quantified using an […]® gel documentation system running […]®, Version 3.4.0.0. ProteinSimple (San Jose, Calif., USA).
To extend this concept, we hypothesized that a dsDNA donor harboring single-stranded overhangs would facilitate HDR to higher levels than with blunt ends. To test this hypothesis, we designed and generated a series of donor molecules with either blunt end, 5′ end protrusion or 3′ end protrusion by annealing two small single-stranded oligonucleotides. A single-stranded DNA donor was used as a control. The 5′ and 3′ ends of oligonucleotides were protected with two consecutive phosphorothioate-modified bases (Table 3). For proof of concept, we inserted a 30 nucleotide FLAG epitope tag along with an EcoRI site into the BFP gene stably expressed in HEK293 cells. The gRNA was designed to target the top DNA strand. The length of single-stranded overhangs varied from 6 nucleotides to 30 nucleotides. The oligonucleotides were denatured and re-annealed prior to transfection forming the structures described in FIG. 11A. […] Co-delivery of Cas9 RNPs and donor DNA gave lower HDR efficiencies. At 48 hours post transfection, the genomic locus was PCR-amplified and the editing efficiencies were determined using a GCD assay. […] When the PCR fragments were subjected to restriction digestion with EcoRI to identify properly inserted constructs, only the donor DNA molecules containing 30-base single-stranded overhangs at the 3′ ends produced the expected digested fragments (30-3′ in FIG. 11, panel A). […]

[2] = system: eBFP locus in HEK293 cells expressing eBFP; test: EcoRI restriction digestion of PCR-amplified eBFP locus (FLAG tag/EcoRI insertion); settings: FIG. 11A, donor configurations, sequential delivery, 48 hours
Source text: as §1
To create homologous recombination (HR) assays, a series of gRNAs flanking the insertion site within the EmGFP gene were designed and synthesized (Table 4). Each individual gRNA was combined with GENEART™ […]™ Cas9 Nuclease to form the Cas9 protein/gRNA ribonucleoprotein complexes (Cas9 RNPs). The Cas9 RNPs were then used to transfect cells via NEON® electroporation. The genomic cleavage efficiency was then evaluated using the GENEART® Genomic Cleavage Detection kit at 48 hours post transfection. The gRNAs with highest editing efficiencies and also in close proximity to the insertion site were selected for the subsequent HR assays. For donor design of a single-stranded oligonucleotide, typically the mutation site was positioned at the center flanked by 30 to 50 nucleotides on each side. For asymmetric donor design, 30 nucleotides were placed on either the left or right arm and then 50 or 67 nucleotides on the right or left arm respectively, in both PAM and non-PAM strands. For design of a dsDNA oligonucleotide with single-stranded overhangs, the insertion element was overlapped in the center flanked by various lengths of ssDNA oligonucleotide on each side. By annealing two single-stranded oligonucleotides at 95° C. for 3 minutes, dsDNA donor molecules with either a 5′ protrusion or a 3′ protrusion were generated. To measure homologous recombination efficiency, the donor DNA was either co-transfected with Cas9 RNPs or delivered sequentially into cells via electroporation. At 48 hours post transfection, the gain of EmGFP function in reporter cell lines was determined by flow cytometric analysis with an Attune® NxT Acoustic Focusing Cytometer (Thermo Fisher Scientific). Alternatively, the genomic loci were PCR-amplified using the corresponding primers and then subjected to GENEART® Genomic Cleavage Detection assay or restriction digestion. The resulting PCR products were also subjected to TOPO cloning. Typically, 96 colonies were randomly picked for sequencing. […]

[3] = system: HEK293 cells stably expressing eBFP; test: HDR assay, conversion of eBFP to GFP by flow cytometry; settings: oligonucleotide length and modification, sequential delivery, 1 nt substitution, 48 hours
Source text: To generate a HEK293FT stable cell line expressing eBFP, an eBFP ORF was synthesized by GENEART® custom DNA synthesis (Thermo Fisher Scientific) and then cloned into pDONAR221 vector. Using GATEWAY® recombination technology (Thermo Fisher Scientific), the eBFP ORF was transferred to pLenti6.2-DEST Gateway Vector and then verified by sequencing. Lentivirus was generated using VIRAPOWER® kit as described in the manual. To generate stable cell line, HEK293FT cells were transduced with 0.1 MOI of Lentivirus expressing eBFP. Three days post transduction cells were selected on 5 μg/mL Blasticidine antibiotics for 2 weeks. Cells expressing eBFP were then collected and diluted to […] in complete medium and plated into 96 well plates for single cell clone. After 2 weeks clones were isolated and verified for eBFP expression by flow cytometer. In a reporter assay using a stable eBFP-expressing HEK293 cell line, the substitution of C to T in eBFP gene converts His67 to Tyr67, generating a GFP variant (Table 5).
(§2) To create homologous recombination (HR) assays, a series of gRNAs flanking the insertion site within the EmGFP gene were designed and synthesized (Table 4). Each individual gRNA was combined with GENEART™ […]™ Cas9 Nuclease to form the Cas9 protein/gRNA ribonucleoprotein complexes (Cas9 RNPs). The Cas9 RNPs were then used to transfect cells via NEON® electroporation. The genomic cleavage efficiency was then evaluated using the GENEART® Genomic Cleavage Detection kit at 48 hours post transfection. The gRNAs with highest editing efficiencies and also in close proximity to the insertion site were selected for the subsequent HR assays. For donor design of a single-stranded oligonucleotide, typically the mutation site was positioned at the center flanked by 30 to 50 nucleotides on each side. For asymmetric donor design, 30 nucleotides were placed on either the left or right arm and then 50 or 67 nucleotides on the right or left arm respectively, in both PAM and non-PAM strands. For design of a dsDNA oligonucleotide with single-stranded overhangs, the insertion element was overlapped in the center flanked by various lengths of ssDNA oligonucleotide on each side. By annealing two single-stranded oligonucleotides at 95° C. for 3 minutes, dsDNA donor molecules with either a 5′ protrusion or a 3′ protrusion were generated. To measure homologous recombination efficiency, the donor DNA was either co-transfected with Cas9 RNPs or delivered sequentially into cells via electroporation. At 48 hours post transfection, the gain of EmGFP function in reporter cell lines was determined by flow cytometric analysis with an Attune® NxT Acoustic Focusing Cytometer (Thermo Fisher Scientific). Alternatively, the genomic loci were PCR-amplified using the corresponding primers and then subjected to GENEART® Genomic Cleavage Detection assay or restriction digestion. The resulting PCR products were also subjected to TOPO cloning. Typically, 96 colonies were randomly picked for sequencing. The sequencing data were analyzed using VECTOR NTI ADVANCE® 11.5 software (Thermo Fisher Scientific).
For each homologous recombination assay, 1.5 μg of Cas9 protein and 360 ng of gRNA were added to Resuspension Buffer R to a final volume of 7 μl, but limiting the total volume of Cas9 protein plus gRNA to less than 1 μl. The gRNA could be diluted in Buffer R if the concentration was too high. Upon mixing, the sample was incubated at room temperature for 5 to 10 minutes to form Cas9 RNPs. Meanwhile, […]™ HEK293 cells expressing either eBFP or disrupted EmGFP were detached from culture flask with TRYPLE™ Express Enzyme and then counted. Aliquots of 1×10^6 cells were washed once with DPBS without Ca^2+ and Mg^2+ and the cell pellets were resuspended in 50 μl of Resuspension Buffer R. A 5 μl aliquot of cell suspension was mixed with 7 μl of Cas9 RNPs. […] The electroporated cells were transferred to 300 μl of […]. […]

eBFP genomic locus = test: Sequencing verification of eBFP locus, 1 nt substitution (96 clones); settings: sequencing of 96 clones; for Relative percentage HDR / Relative percentage NHEJ / Relative percentage wt: 1 nt substitution
Protocol: FIG. 8. Effects of oligonucleotide length and modification on HDR. (A) PAM ssDNA (6 nt insertion). […] Various length of PAM ssDNA oligonucleotide was normalized to either equal mass or equal molarity. Samples in the absence of donor (+gRNA) or gRNA (−gRNA) served as controls. The percentages of GFP-positive cells were determined by flow cytometry at 48 hours post transfection. (B) PAM ssDNA (1 nt substitution). […] The percentages of GFP-positive cells were determined by flow cytometry at 48 hours post transfection. (C) Verification by sequencing. The eBFP genomic locus was PCR-amplified, followed by cloning and Sanger sequencing of 96 samples. The relative percentage of wild type (wt), NHEJ, and HDR was plotted. (D) Examples of mutations. Examples of edited clones (not representing the actual percentages of NHEJ and HDR). FIG. 8 discloses SEQ ID NOs: 4-14, respectively, from top to bottom.
as §2
It has been reported that relatively short single-stranded oligonucleotides containing 25-61 bases homologous to the target sequence were capable of correcting a single point mutation (Igoucheva, O., Alexeev, V., Yoon, K., Targeted gene correction by small single-stranded oligonucleotides in mammalian cells, Gene Ther. 8(5):391-399 (2001)). […]

[4] = listed as 80-base modified oligonucleotide

B1: 6-3′: dsDNA donor with 6 nucleotide 3′ overhangs, annealed SEQ ID 79 and 80 (nucleic acid)
chain 1: GACTACAAAGACGATGACGACAAGAATTCTTACGGCG
chain 2: AAGAATTCTTGTCGTCATCGTCTTTGTAGTCGGTCAG
modifications: chemistry not fully specified
Avg (% Indels) [1]: 78.50% | Avg (% digestion) [2]: 0.00%

B2: PS80: phosphorothioate 80-mer ssDNA, BFP point mutation, SEQ ID 49 (nucleic acid)
DNA: {P}-dG*dC*dTdGdCdCdCdGdTdGdCdCdCdTdGdGdCdCdCdAdCdCdCdTdCdGdTdGdAdCdCdAdCdCdCdTdGdAdCdCdTdAdCdGdGdCdGdTdGdCdAdGdTdGdCdTdTdCdAdGdCdCdGdCdTdAdCdCdCdCdGdAdCdCdAdCdAdT*dG*dA
Avg (% GFP+ cells) [3]: 44.3% | Avg (% GFP+ cells) [3, 4]: approximately 45% | overall genome modification efficiency (eBFP genomic locus): ~94% | Relative percentage HDR (eBFP genomic locus): 40.4% | Relative percentage NHEJ (eBFP genomic locus): 53.8% | Relative percentage wt (eBFP genomic locus): 5.8% | Relative percentage HDR (eBFP genomic locus; [4]): Approximately 40% | Relative percentage NHEJ (eBFP genomic locus; [4]): approximately 54% | Relative percentage wt (eBFP genomic locus; [4]): approximately 6%

B3: 15-5′: dsDNA donor with 15 nucleotide 5′ overhangs, annealed SEQ ID 81 and 82 (nucleic acid)
chain 1: dG*dT*dGdAdCdCdAdCdCdCdTdGdAdCdCdGdAdCdTdAdCdAdAdAdGdAdCdGdAdTdGdAdCdGdAdCdAdAdGdAdAdTdTdC*dT*dT
chain 2: dG*dC*dAdCdTdGdCdAdCdGdCdCdGdTdAdAdGdAdAdTdTdCdTdTdGdTdCdGdTdCdAdTdCdGdTdCdTdTdTdGdTdAdG*dT*dC
modifications: Two annealed DNA oligonucleotides with 5' overhangs, further chemistry not fully specified
Avg (% Indels) [1]: 69.50% | Avg (% digestion) [2]: 0.00%

B4: 6-5′: dsDNA donor with 6 nucleotide 5′ overhangs, annealed SEQ ID 77 and 78 (nucleic acid)
chain 1: dC*dT*dGdAdCdCdGdAdCdTdAdCdAdAdAdGdAdCdGdAdTdGdAdCdGdAdCdAdAdGdAdAdTdTdC*dT*dT
chain 2: dC*dG*dCdCdGdTdAdAdGdAdAdTdTdCdTdTdGdTdCdGdTdCdAdTdCdGdTdCdTdTdTdGdTdAdG*dT*dC
modifications: Two annealed DNA oligonucleotides with 5' overhangs, further chemistry not fully specified
Avg (% Indels) [1]: 56.50% | Avg (% digestion) [2]: 0.00%

B5: blunt: blunt-end dsDNA donor, FLAG tag plus EcoRI site, annealed SEQ ID 75 and 76 (nucleic acid)
chain 1: dG*dA*dCdTdAdCdAdAdAdGdAdCdGdAdTdGdAdCdGdAdCdAdAdGdAdAdTdTdC*dT*dT
chain 2: dA*dA*dGdAdAdTdTdCdTdTdGdTdCdGdTdCdAdTdCdGdTdCdTdTdTdGdTdAdG*dT*dC
modifications: annealed double-stranded DNA donor, further chemistry not fully specified
Avg (% Indels) [1]: 68.50% | Avg (% digestion) [2]: 0.00%
